{
  "source": "the RNAGym collection of RNA variant scans (doi:10.7554/elife.80360)",
  "parents": {"B1": {"name": "CPEB3 Ribozyme (parent)", "chain": "GGGGGCCACAGCAGAAGCGUUCACGUCGCGGCCCCUGUCAGAUUCUGGUGAAUCUGCGAAUUCUGCUGU"}},
  "data": [
    {"variants_of": "B1", "assay": "self-cleavage, relative activity (ratio to wild type); higher = more cleavage; co-transcriptional", "values": [
      {"variant": "C7U A23C", "self-cleavage": 0.87},
      {"variant": "C7U A23G", "self-cleavage": 0.909},
      {"variant": "C7U A23U", "self-cleavage": 0.955},
      {"variant": "C7G G48A", "self-cleavage": 0.457},
      {"variant": "C7G G48U", "self-cleavage": 0.548},
      {"variant": "C7A G50U", "self-cleavage": 0.54},
      {"variant": "C7A G50A", "self-cleavage": 0.617},
      {"variant": "C7G G17A", "self-cleavage": 0.11},
      {"variant": "C7U G37U", "self-cleavage": 0.214},
      {"variant": "C7U G56U", "self-cleavage": 0.849},
      {"variant": "C7U G56C", "self-cleavage": 0.618},
      {"variant": "C7G U26C", "self-cleavage": 0.247},
      {"variant": "C7U A8U", "self-cleavage": 0.945},
      {"variant": "C7U A8G", "self-cleavage": 0.918},
      {"variant": "C7U A8C", "self-cleavage": 0.954},
      {"variant": "C7G C34A", "self-cleavage": 0.109},
      {"variant": "C7G C34G", "self-cleavage": 0.0956},
      {"variant": "C7G C34U", "self-cleavage": 0.325},
      {"variant": "C7G A23C", "self-cleavage": 0.319},
      {"variant": "C7A U26G", "self-cleavage": 0.274},
      {"variant": "C7A U26C", "self-cleavage": 0.357},
      {"variant": "C7G C32G", "self-cleavage": 0.106},
      {"variant": "C7G C32U", "self-cleavage": 0.177},
      {"variant": "C7G U49G", "self-cleavage": 0.469},
      {"variant": "C7G G58U", "self-cleavage": 0.528},
      {"variant": "C7G G58C", "self-cleavage": 0.285},
      {"variant": "C7U C34A", "self-cleavage": 0.521},
      {"variant": "C7G C35G", "self-cleavage": 0.0899},
      {"variant": "C7G C35U", "self-cleavage": 0.248},
      {"variant": "C7U C12A", "self-cleavage": 0.555},
      {"variant": "C7U G25A", "self-cleavage": 0.144},
      {"variant": "C7U G25C", "self-cleavage": 0.0703},
      {"variant": "C7A U44G", "self-cleavage": 0.305},
      {"variant": "C7A U44C", "self-cleavage": 0.432},
      {"variant": "C7A U64G", "self-cleavage": 0.355},
      {"variant": "C7A U64A", "self-cleavage": 0.359},
      {"variant": "C7U U20A", "self-cleavage": 0.112},
      {"variant": "C7U U20C", "self-cleavage": 0.158},
      {"variant": "C7G A15C", "self-cleavage": 0.0463},
      {"variant": "C7G A15G", "self-cleavage": 0.248},
      {"variant": "C7A U55G", "self-cleavage": 0.194},
      {"variant": "C7A U55C", "self-cleavage": 0.208},
      {"variant": "C7A U55A", "self-cleavage": 0.333},
      {"variant": "C7G G11A", "self-cleavage": 0.281},
      {"variant": "C7G A51U", "self-cleavage": 0.34},
      {"variant": "C7G A51G", "self-cleavage": 0.455},
      {"variant": "C7G A51C", "self-cleavage": 0.306},
      {"variant": "C7G C63A", "self-cleavage": 0.237},
      {"variant": "C7G C63U", "self-cleavage": 0.316},
      {"variant": "C7G C63G", "self-cleavage": 0.113},
      {"variant": "C7U A40U", "self-cleavage": 0.683},
      {"variant": "C7U A40C", "self-cleavage": 0.282},
      {"variant": "C7U A40G", "self-cleavage": 0.934},
      {"variant": "C7U G28C", "self-cleavage": 0.197},
      {"variant": "C7U G28U", "self-cleavage": 0.146},
      {"variant": "C7G U69C", "self-cleavage": 0.861},
      {"variant": "C7G U69G", "self-cleavage": 0.779},
      {"variant": "C7G G19A", "self-cleavage": 0.0606},
      {"variant": "C7G G19U", "self-cleavage": 0.0728},
      {"variant": "C7U G65U", "self-cleavage": 0.612},
      {"variant": "C7U G65C", "self-cleavage": 0.604},
      {"variant": "C7U G65A", "self-cleavage": 0.781},
      {"variant": "C7U C27U", "self-cleavage": 0.247},
      {"variant": "C7U C27A", "self-cleavage": 0.289},
      {"variant": "C7U C27G", "self-cleavage": 0.159},
      {"variant": "C7G C27G", "self-cleavage": 0.112},
      {"variant": "C7G C27U", "self-cleavage": 0.0215},
      {"variant": "C7G G47A", "self-cleavage": 0.452},
      {"variant": "C7G A10U", "self-cleavage": 0.683},
      {"variant": "C7G A10C", "self-cleavage": 0.703},
      {"variant": "C7G A10G", "self-cleavage": 0.671},
      {"variant": "C7G U46C", "self-cleavage": 0.38},
      {"variant": "C7G U46A", "self-cleavage": 0.453},
      {"variant": "C7G", "self-cleavage": 0.497},
      {"variant": "C7U", "self-cleavage": 0.968},
      {"variant": "C7A U67C", "self-cleavage": 0.807},
      {"variant": "C7G G65A", "self-cleavage": 0.162},
      {"variant": "C7G G65U", "self-cleavage": 0.217},
      {"variant": "C7G G65C", "self-cleavage": 0.126},
      {"variant": "C7G U62C", "self-cleavage": 0.285},
      {"variant": "C7G U62G", "self-cleavage": 0.244},
      {"variant": "C7A C35G", "self-cleavage": 0.156},
      {"variant": "C7A C35U", "self-cleavage": 0.222}
    ]}
  ]
}
